Target: HAF protein (trimeric recombinant H5N1 hemagglutinin ectodomain with the bacteriophage T4 fibritin fold on trimerization sequence) (influenza A virus A/Anhui/1/2005 (H5N1) | bacteriophage T4)
Assay: SEC; […], running buffer pH 8.0 ([…]

HAF protein (trimeric recombinant H5N1 hemagglutinin ectodomain with the bacteriophage T4 fibritin fold on trimerization sequence)
stoichiometry N: 3

Reference: PMC6288289
